The results in this text go back to patent US12098378B2, “Anti-fungal polypeptides” (priority 2020, dated 2024).

For one test, the system named is Botrytis cinerea spores. The test can be described thus: Microscopic time-lapse imaging of spores (mode of action). Type of test: cell-based. Particulars: IncuCyte time-lapse imaging (FIG. 14). An excerpt: The action of 10G11 disrupting liposomes (Example 12), further underscores lysing of spores can be attributed to the action of 10G11.
For another test, the system named is Botrytis cinerea. The test can be described thus: Control of Botrytis cinerea on strawberry, at harvest and postharvest. Type of test: in vivo. The method, then: Four replicates of 20 strawberry plants ([…] per plot) were treated with 0.576 or 0.72 l of spray solution, corresponding with a spray volume of […], according to local practice. The spray mix contained a concentration of active ingredient as described in Table 7. Six applications were performed spaced 7 days apart. No artificial infection was performed and first spray was placed at the onset of flowering. The efficacy of 10G11 was compared to that of a non-treated control and the chemical reference Teldor (Fenhexamid). In addition, a chemical rotation of Switch (Cyprodinil+Fludioxonil), Teldor (Fenhexamid) and Scala (Pyrimethanil) was evaluated. A seventh treatment replaced part of the chemicals in this chemical rotation by 10G11 as described in Table 7.
Efficacy assessments were performed on fruits at harvest and the number and weight of healthy and diseased fruits was evaluated. Per plot, 50 healthy fruits were then placed into cold storage (2° C.) for two days, after which the postharvest assessment continued for 5 more days at ambient temperature ([…]). Botrytis incidence and severity on stored fruits was assessed at 0, 2 and 5 days at ambient storage.

The next test relates to Uncinula necator. The test can be described thus: Control of powdery mildew on grapevine in field. Type of test: in vivo. As to conditions: 250, 500, 750 g ai/ha, 8 applications, until four weeks after application. The procedure: Four replicates of 10 vines (25 m^2 per plot) were treated with 8 or 10 l of spray solution, corresponding with a spray volume of […], according to local practice and growth stage of the vines. The spray mix contained a concentration of active ingredient as described in Table 4. Eight applications were performed, spaced on average 10 days apart. No artificial infection was performed and first spray was at pre-bloom stage, before first powdery mildew symptoms. The efficacy 10G11 was compared to that of a non-treated control and the chemical reference Topas 10 EC (Penconazole). In addition, a chemical rotation of Tiovit Jet (sulphur), Vivando (Metrafenon), Sercadis (Fluxapyroxad), Prosper 500 EC (Spiroxamine) and Karathane Star (Meptyldinocap) was evaluated. A seventh treatment replaced part of the chemicals in this chemical rotation by 10G11 as described in Table 4.
Efficacy assessments were performed on leaves by evaluating the percentage of leaf area affected on 100 leaves randomly selected from the same position on the shoot. In addition, powdery mildew infection on fruits was assessed as the percentage of infected area of 50 randomly selected bunches per plot. Assessments continued until 4 weeks after the last application.

B1: 10G11: VHH polypeptide, SEQ ID NO: 2, begins with a D residue (protein)
VHH: DVQLVESGGGLVQAGGSLRLSCAASRSIFSINAMDWYRQAPGKQREWVAGITRGGTTKYADSVKGRFTISRDNAKKKVYLQMNSLKPEDTAVYYCNVLRGEQPWTRDYWGQGTQVTVSS
As to B1, in the test with Botrytis cinerea spores, the “spore lysis (loss of structural integrity)” value is listed as “substantial portion of spores are also lysed” and the spore outgrowth entry was “inhibited in commencing spore outgrowth”. In addition, in the test with Botrytis cinerea (250, 500, 750 g ai/ha, 6 applications in the field during flowering (FIG. 26)), the “Botrytis infected strawberry fruits at harvest” value is on record as “reduced incidence of Botrytis at harvest”. Besides, in the test on Botrytis cinerea (stored fruits, 2 days at 2° C. then 0, 2 and 5 days at ambient storage (FIG. 27)), the “Botrytis severity on strawberry fruits in postharvest” value was “dose-related reduction of Botrytis severity on stored fruits”. In the test with Uncinula necator (very high disease pressure (FIG. 20)), the “severity of powdery mildew on grape leaves (percentage of leaf area affected)” value was “clear and dose-related performance”. Also, in the test on Uncinula necator (very high disease pressure (FIG. 21)), the “severity of powdery mildew on grape bunches (percentage of infected area)” value was “clear and dose-related performance”.
